Measured values from patent US20240165252A1, “ANTIBODY-DRUG CONJUGATE AND MEDICAL USE THEREOF” (Shanghai Hansoh Biomedical Co., Ltd., priority 2021, published 2024).
Where a chain is given by its changes, count along the chain named.

Key:
[1] = target: BCMA expressed on cells (HEK-293T cells overexpressing BCMA; NCI-H929 tumor cells) (human) (UniProt Q02223); assay: cell-based or functional assay
[2] = target: T1, His-tagged extracellular domain of human BCMA (BCMA-His) (human); assay: indirect ELISA, BCMA His coated on plate
T1 construct: Bought protein; also called BCMA His protein; human BCMA His antigen
T1 chain: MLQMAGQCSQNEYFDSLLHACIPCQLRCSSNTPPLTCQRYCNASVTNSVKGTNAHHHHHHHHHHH
Protocol: (§1) After washing, the plate 4 times with PBST (pH 7.4 PBS containing 0.05% Tween-20), 3% bovine serum albumin (BSA) blocking solution diluted with PBST was added at 150 μl/well and incubated at room temperature for 1 hour for blocking. After completion of the blocking, the blocking solution was discarded, and the plate was washed 4 times with PBST buffer.
(§2) The antibody to be tested was 10-fold gradient diluted with PBST containing 3% BSA with the initial concentration of 1 μM to obtain 10 dilutions which were added to the microtiter plate at 100 μl/well and incubated at room temperature for 1 hour. After completion of the incubation, the plate was washed 4 times with PBST. HRP-labeled goat-anti-human secondary antibody (Abcam, Cat #ab97225) diluted with PBST containing 3% BSA was added at 100 μl/well and incubated at room temperature for 1 hour. The plate was washed 4 times with PBST, and then TMB chromogenic substrate (Cell Signaling Technology, cat #7004S) was added at 100 μl/well and incubated at room temperature in the dark for 1 minute. The stop solution (Cell Signaling Technology, cat #7002S) was added at 100 μl/well to terminate the reaction. The absorbance value at 450 nm was read with a microplate reader (BioTek, model Synergy H1). The data were analyzed.

[3] = target: T2, BCMA expressed on cells (HEK-293T cells overexpressing BCMA; NCI-H929 tumor cells) (human, UniProt Q02223 1-184); assay: flow cytometry on NCI-H929 cells
T2 construct: whole, on cells; also called HEK-293T/BCMA cells; NCI-H929 cells
T2 sequence (looked up): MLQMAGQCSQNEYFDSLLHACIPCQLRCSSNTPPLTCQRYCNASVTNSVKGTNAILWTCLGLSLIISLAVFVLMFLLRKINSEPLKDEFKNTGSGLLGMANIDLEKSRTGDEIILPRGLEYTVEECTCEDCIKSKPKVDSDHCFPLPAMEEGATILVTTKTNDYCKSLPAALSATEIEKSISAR
Protocol: (§3) The cultured cells with high BCMA expression (HEK-293T cells overexpressing BCMA; tumor cells expressing BCMA, NCI-H929) were collected. The cell density was adjusted and the cells were plated on a 96-well U-bottomed plate at 1×10⁵ to 2×10⁵ cells per well. The plate was centrifuged at 1200 g for 5 min and the supernatant was removed. 100 μl of gradient diluted antibody solution or mouse immunized serum was added and incubated at 4° C. for 60 min. The plate was centrifuged at 1200 g for 5 min and the supernatant was removed. The cells were washed twice with PBS. A fluorescently labeled secondary antibody (PE-GAH or PE-GAM) was added at 100 μl per well and incubated at 4° C. for 60 min. The plate was centrifuged at 1200 g for 5 min and the supernatant was removed. The cells were washed twice with PBS and then re-suspended in PBS. The signal was detected by using a flow cytometer, and a concentration curve was plotted for result analysis.

[4] = target: T2, BCMA expressed on cells (HEK-293T cells …); assay: flow cytometry on HEK-293T/BCMA cells
Protocol: as §3

[5] = target: T1, His-tagged extracellular domain of …; assay: indirect ELISA, BCMA-His coated on plate
Protocol: as §1, §2

[6] = target: T2, BCMA expressed on cells (HEK-293T cells …); assay: cell-based or functional assay
[7] = target: T2, BCMA expressed on cells (HEK-293T cells …); assay: cell-based or functional assay; remark: listed apart in the source

Molecule IgG1 iso ADC (y = 4) (antibody) has a Killing Effect (IC50 nM) NCI-H929 [1] of over 133 nM.

B1: murine monoclonal antibody M1 (antibody, V domains shown)
VH: QVQLQQSGAELVRPGASVKLSCKALGYSFSDYEMHWVRQTPVHGLEWIGGIHPGSGGSAYNQKFKGKATLTVDKSSSTAYMELSSLTSEDSAVYYCTRLDYGYSWAWFPYWGQGTLVTVSA
VL: EILLTQSPAIIVTSPGEKVTITCSASSSVIYMNWYQQKPGSSPKIWIYGISNLASGVPARFSGSGSGTSFSFTINSMEAEDVATYYCQQRSSYPLTFGAGTKLELK
notes: It is a hybridoma-derived murine antibody, yet the ELISA protocol names a goat-anti-human secondary antibody; also called murine antibody M1
For B1, the EC50 [2] was 0.53 nM, the EC50 [3] was 128 nM and the EC50 [4] was 115 nM.

B2: humanized anti-BCMA antibody Ab2 (antibody, human IgG1, kappa, V domains shown)
VH: QVQLVQSGAEVKKPGASVKVSCKASGYSFSDYEMHWVRQAPGQGLEWIGGIHPGSGGSAYNQKFKGRVTLTVDKSTSTAYMELSSLRSEDTAVYYCTRLDYGYSWAWFPYWGQGTLVTVSA
VL: EIVLTQSPATLSLSPGERATLSCSASSSVIYMNWYQQKPGQSPKIWIYGISNLASGVPARFSGSGSGTDFTLTISSLEPEDFAVYYCQQRSSYPLTFGGGTKVEIKR
notes: Human IgG1/kappa, expressed in HEK293 cells
With B2 the EC50 [5] was 0.033 nM, the EC50 [3] was 3.5 nM and the “Endocytosis efficiency %, 0.5 hour” value [6] was 36.7%. The “Endocytosis efficiency %, 2 hours” value [6] was 48%.

B3: antibody drug conjugate ADC2 (y = 4) (antibody, human IgG1, kappa, V domains shown)
VH: B2 VH
VL: B2 VL
modifications: Linker-drug compound D (exatecan derivative) coupled to Ab2 after TCEP reduction. Average load y = 4 per antibody. Sites not stated.
In the case of B3, the “Killing Effect (IC50 nM) NCI-H929” value [7] is reported as 0.76 nM.

B4: humanized anti-BCMA antibody Ab3 (antibody, human IgG1, kappa, V domains shown)
VH: B2 VH with R67K, V68A
VL: B2 VL with V3L, S22T, Q41S, D69S
notes: as for B2
With B4 the EC50 [5] was 0.034 nM, the EC50 [3] was 3.9 nM and the “Endocytosis efficiency %, 0.5 hour” value [6] was 35.5%. The “Endocytosis efficiency %, 2 hours” value [6] was 45.7%.

B5: humanized anti-BCMA antibody Ab1 (antibody, human IgG1, kappa, V domains shown)
VH: B2 VH with I48M, L70M, V72R, K74T, A79V
VL: B2 VL with S42A, K44R, I45L, W46L, V57I
notes: as for B2
B5 was tested, and the EC50 [5] was 0.022 nM, the EC50 [3] was 4.6 nM and the “Endocytosis efficiency %, 0.5 hour” value [6] was 36.6%. The “Endocytosis efficiency %, 2 hours” value [6] was 49.5%.
